Literature values as cited in publication PMC4463550.
One block for each substance: values may come before it.

Key:
[1] = target: Cys647 (UniProt position 647, LGEVHCGTNVR); experiment: chemical modification; conditions: calcium state not stated
[2] = target: PAD4 (Homo sapiens) (UniProt Q9UM07)
[3] = target: Cys645 (UniProt position 645, HGEVHCGTNVR); experiment: chemical modification; conditions: PAD4, no substrate; calcium state not stated
[4] = target: His471 (UniProt position 471, WLSVGHVDEFL); conditions: PAD4; state not stated

PAD4, sequence (Q9UM07 whole entry): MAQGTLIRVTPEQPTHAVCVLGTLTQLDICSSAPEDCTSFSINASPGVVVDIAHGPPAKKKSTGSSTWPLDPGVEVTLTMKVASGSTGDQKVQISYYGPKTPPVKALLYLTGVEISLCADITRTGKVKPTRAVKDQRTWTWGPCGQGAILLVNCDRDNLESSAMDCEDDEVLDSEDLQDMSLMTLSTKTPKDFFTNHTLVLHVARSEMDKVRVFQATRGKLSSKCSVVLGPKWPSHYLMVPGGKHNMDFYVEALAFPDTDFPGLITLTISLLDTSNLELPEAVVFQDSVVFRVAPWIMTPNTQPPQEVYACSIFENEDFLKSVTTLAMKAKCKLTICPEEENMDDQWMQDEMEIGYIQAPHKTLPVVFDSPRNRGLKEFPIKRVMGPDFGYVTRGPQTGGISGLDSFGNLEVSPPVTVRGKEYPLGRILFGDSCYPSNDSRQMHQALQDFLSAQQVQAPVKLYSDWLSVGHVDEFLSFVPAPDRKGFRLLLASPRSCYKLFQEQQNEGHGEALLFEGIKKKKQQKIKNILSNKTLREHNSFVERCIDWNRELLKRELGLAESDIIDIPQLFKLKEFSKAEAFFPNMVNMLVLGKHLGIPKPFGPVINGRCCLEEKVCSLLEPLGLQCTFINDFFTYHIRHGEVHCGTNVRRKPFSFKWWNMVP

Substance: Protein arginine deiminase 2 (PAD2) (Homo sapiens)
pKa ([1]; PAD2, no substrate): 8.2 | pKa ([1]; PAD2 reacting with the substrate-mimicking, positively charged inactivator 2-chloroacetamidine): 7.2

Kd [2]: 450 nM
Substance: PAD4 (from UniProt Q9UM07)

Substance: Protein arginine deiminase 4 (PAD4) (Homo sapiens)
pKa [3]: ≈ 8.3 | pKa [4]: ∼7.3
